These results are taken from publication PMC4733404 (Cell, 2016).

The target of the assay is EBOV GP, soluble form of the full-length extracellular domain (Zaire ebolavirus, strain  …, UniProt Q05320). Kind of assay: ELISA.
Sequence of EBOV GP, soluble form of the full-length extracellular domain (Q05320 33-650): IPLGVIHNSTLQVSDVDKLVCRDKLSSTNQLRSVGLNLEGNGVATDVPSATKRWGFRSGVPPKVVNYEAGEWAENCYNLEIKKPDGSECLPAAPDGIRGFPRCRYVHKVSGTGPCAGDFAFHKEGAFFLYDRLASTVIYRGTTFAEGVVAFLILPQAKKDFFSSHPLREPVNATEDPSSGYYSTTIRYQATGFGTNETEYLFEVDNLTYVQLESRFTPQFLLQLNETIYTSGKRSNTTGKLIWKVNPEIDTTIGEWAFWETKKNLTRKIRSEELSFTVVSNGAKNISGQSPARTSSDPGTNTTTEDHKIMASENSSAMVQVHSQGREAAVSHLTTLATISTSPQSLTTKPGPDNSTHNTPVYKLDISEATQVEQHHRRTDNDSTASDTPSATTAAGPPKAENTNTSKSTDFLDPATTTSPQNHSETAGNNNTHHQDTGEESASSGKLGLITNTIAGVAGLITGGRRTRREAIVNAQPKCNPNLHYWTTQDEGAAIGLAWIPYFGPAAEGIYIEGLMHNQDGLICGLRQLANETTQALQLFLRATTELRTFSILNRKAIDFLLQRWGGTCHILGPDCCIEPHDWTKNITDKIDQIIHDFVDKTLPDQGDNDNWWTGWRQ

B1: BDBV289, human mAb (antibody, V domains shown)
VH: QVQLVQSGAEVKKPGSSVKVSCKASGATFGSDTVTWVRQAPGQGLEWMGGIIPFFGEANYAQRFQGRVTITADKSTNTAYMELSSLRSEDTAVYFCARQINEMATFGEIHYYTYMDVWGQGTLVTVSS
VL: GSELTQDPAVSVALGQTVRITCQGDSLRNYYASWYQQKPRQAPVLVFYGKNNRPSGIPDRFSGSSSGNTASLTISGAQAEDEADYYCNSRDSSSNHLVFGGGTKLTVL
As to B1, the binding result is “binds”.
